Test results: the Human Domainome abundance scans (Beltran et al. 2025)

B1: Transcription intermediary factor 1-beta, residues 620 to 671; numbered along this chain, Q13263 (parent)
chain: TLDDSATICRVCQKPGDLVMCNQCEFCFHLDCHLPALQDVPGEEWSCSLCHV

Variants of: B1
Experiment: abundance fitness (aPCA) (normalised: wild type 0, dead -1); higher = more abundant; growth selection in yeast, the domain comes from the species named
Conditions: Homo sapiens

Abundance fitness, by site and new letter:
K14: S -0.35, N -0.408, L -0.513, F -0.424
F26: V -0.33, H -0.374, W -0.399, Q 0.082, T -0.563, D -0.034, C -0.029, K 0.155, E 0.04, R -0.045, L -0.328, I -0.812, N -0.122, P -0.993, A -0.063, M -0.108, G 0.121, S -0.192
H29: F -0.864, W -0.908, R -0.749, E -0.919, N -0.504, P -1.34, Q -0.957, A -1.01, K -0.807, V -0.952, G -0.899, I -1.12, C -0.67, Y -0.921, T -0.637, M -0.967, D -0.883, L -1.01
C12: Y -1
F28: N -0.724, C -0.211, L -0.393, V -0.227, Y -0.09, E -0.321, I -0.016, T -0.278, W 0.093, K -0.427, G -0.593, D -0.554, S -0.424, R -0.284, M -0.318, Q -0.549, H -0.346, A -0.098
V11: K -0.162, H -0.659, S -0.312, L 0.009, I -0.064, D -0.484, Y -0.515, W -0.409, P -0.779, M 0.059, E -0.072, G -0.221, R -0.128, C -0.39, A -0.131, Q -0.136, N -0.142
L30: T -0.292, Q -0.432, D -0.755, N -0.264, K -0.312, P -0.139, E -0.196, G -0.375, F -0.609, C -0.135, R -0.02, W -0.271, M -0.299, S -0.145, H -0.194, A -0.116, I -0.479
E25: V -0.493, Y -0.061, T -0.024, P -0.66, S 0.059, W -0.322, Q -0.077, H -0.578, L -0.134, R -0.136, K -0.228, D -0.3, N -0.822, M -0.286, C -0.052, F -0.113, A -0.227, G -0.27, I -0.298
P15: T -0.546, A 0.005, K -0.193, L -0.684, D -0.233, W -0.771, F -0.787, E -0.01, S -0.022, Y -0.255, G -0.126, Q -0.559, C -0.646, H -0.132, I -0.359, M -0.168, N -0.396
G16: L -0.432, W -0.791, Q -0.477, V -0.827, S -0.091, K -0.258, M -0.553, F -0.524, Y -0.879, T -0.754, R -0.389, C -1.11, I -0.534, E -0.307, P -0.945, A -0.639, N 0.137, D 0.076, H -0.214
C24: H -1.01, A -0.666, N -1.19, K -0.894, P -0.928, M -0.918, D -0.769, W -1.04, V -1.08, I -1.07, T -0.842, S -1, R -0.685, G -0.541, F -0.965
D31: E -0.202, G -0.004, N 0.175, I -0.501, C -0.709, K -0.528, A -0.257, F -0.558, M -0.365, H -0.024
R10: E -0.476, F -0.271, W -0.574, Y -0.257, G -0.291, H 0.136, N 0.094, C -0.363, I -0.866, P -0.301, T -0.037, M -0.113, Q -0.296, K 0.206, D -0.108, S 0.161, A -0.327, V -0.143
Q23: R -0.172, F -0.292, P -0.93, S -0.089, K -0.113, M -0.371, N -0.014, H -0.486, W -0.383, I -0.373, T -0.066, D -0.234, L -0.199, Y -0.336, A -0.395, C -0.043, V -0.214
C9: S -0.848, T -0.926, V -0.902, W -0.905, Y -1
Q13: F 0.042, G -0.016, A -0.322, T -0.085, V -0.518, L -0.084, M -0.002, C 0.091, R -0.025, E 0.092, S 0.036, N 0.128, K -0.032, W -0.063, Y -0.111, P -0.82, I -0.265, D 0.144, H 0.062
C27: Y 0.002
V19: W 0, E -0.519, T -0.314, M -0.157, S -0.613, G -0.852, N -0.556, C -0.536, P -0.943, A -0.58, Q -0.402, I 0.008, H 0.116, L -0.171, F -0.311, D 0.025, R -0.364
C21: M -1.24, N -0.565, G -0.871, T -0.95, W -1.14, V -0.826, S -0.968, H -0.445, E -0.434, D -0.575, A -0.995, L -0.837, I -0.807, Q -0.8, P -0.697, F -0.962
D17: G 0.076, C -0.151, P -0.604, L -0.301, Q -0.186, H 0.01, E -0.119, N -0.256, V -0.355, R -0.062, S -0.004, I -0.409, F -0.099, K -0.018, M -0.364, T -0.074, Y -0.512, W -0.522, A -0.639
M20: N -0.337, A -0.312, K -0.354, Y -0.296, H -0.755, S -0.112, W -0.73, I -0.379, D -0.574, L -0.391, E -0.304, V -0.322, G -0.29, R 0.003, P 0.067, C -0.225, F -0.192
N22: I -0.316, F -0.281, E 0.094, A -0.232, H -0.449, S -0.066, P -0.382, C -0.092, M -0.337, R -0.11, T -0.182, Q -0.116, L -0.561, G -0.27, K 0.05
L18: M -0.599, W -0.834, T 0.162, G -0.642, R -0.889, A -0.559, P -0.729, H -0.664, F -0.697, N -0.662, K -0.636, S -0.789, C -0.317, I -0.371, E -0.374, Q -0.483, Y -0.632
